Assay results taken from article PMC3594281.

The binders below were run against T1, Hyper-IL-6 (sIL-6R/IL-6 fusion) (UniProt P08887 20-323+P05231:30-212, internal_change) (assay: filter binding).

| Binder | Kd |
| --- | --- |
| GGGAGGGAGGGAGGGA (structured_DNA) [AID-1+A] | 691 ± 271 nM |

Target: T1, Hyper-IL-6 (sIL-6R/IL-6 fusion)
Experiment: filter binding
Remark: another data set of the same source

| Binder | Kd | binding result |
| --- | --- | --- |
| GGGTGGGTGGGAGGGT (structured_DNA) [AID-1-T12A] | 234 ± 71 nM | – |
| GGGTGGGTGGGTGGG (structured_DNA) [AID-1-T] | 127 ± 79 nM | – |
| GGGTGGGAGGGTGGGT (structured_DNA) [AID-1-T8A] | 316 ± 59 nM | – |
| GTTTGTGTTTGTGTGT (ssDNA) [NK3] | – | no binding |
| GGGUGGGUGGGUGGG (structured_RNA) [rAID-1-U] | 199 ± 65 nM | – |
| GGGAGGGTGGGTGGGT (structured_DNA) [AID-1-T4A] | 420 ± 160 nM | – |
| GGGTGGGTGGGTGGGA (structured_DNA) [AID-1-T16A] | 693 ± 392 nM | – |
| GGGUGUGUGGGUGGGU (structured_RNA) [rAID-1-G6U] | – | no binding |
| GGGGAGGCUGUGGUGAGGG (structured_RNA) [AIR-3A] | 82 ± 9 nM | – |
| GGGUGGGUGGGUGGGU (structured_RNA) [rAID-1] | 208 ± 53 nM | – |
| GGGGAGGCUGUGGUGAUUG (structured_RNA) [AIR-3A-G17/18U] | – | no binding |
| GGGTGGGTGGGTGGGT (structured_DNA) [AID-1 (T30923)] | 209 ± 96 nM | – |
| GTGGTGGGTGGGTGGGT (structured_DNA) [T30175] | 293 ± 94 nM | – |

These binders were tested against IL-6 (human, UniProt P05231 30-212) (assay: filter binding).
Chain of IL-6 (P05231 30-212): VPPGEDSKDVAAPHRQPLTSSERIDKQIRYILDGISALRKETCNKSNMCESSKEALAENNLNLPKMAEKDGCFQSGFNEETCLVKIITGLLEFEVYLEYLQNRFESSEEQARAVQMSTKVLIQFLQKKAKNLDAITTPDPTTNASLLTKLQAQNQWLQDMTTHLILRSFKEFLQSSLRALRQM

| Binder | binding result |
| --- | --- |
| GGGTGGGTGGGTGGGT (structured_DNA) [AID-1 (T30923)] | no binding |
| GTGGTGGGTGGGTGGGT (structured_DNA) [T30175] | no binding |

Target: T1, Hyper-IL-6 (sIL-6R/IL-6 fusion)
Experiment: filter binding
Remark: another data set of the same source

| Binder | binding result |
| --- | --- |
| GGTGGTGGTGGT (structured_DNA) [d(GGT)4] | no binding |
| GTGTGGGTGGGTGGGT (structured_DNA) [AID-1-G2T] | no binding |
| GGGTGAGTGGGTGGGT (structured_DNA) [AID-1-G6A] | no binding |
| GGGTGAGTGGGTGAGT (ssDNA) [AID-1-G6A/G14A] | no binding |
| TGGTGGGTGGGTGGGT (structured_DNA) [AID-1-G1T] | no binding |
| GGGTGTGTGGGTGGGT (structured_DNA) [AID-1-G6T] | no binding |
| GTGTGTGTGTGTGTGT (ssDNA) [PolyGT] | no binding |
| GGGTGGGTGTGTGGGT (structured_DNA) [AID-1-G10T] | no binding |
| GGGGAGGCUGUGGUGAUGG (structured_RNA) [AIR-3A-G17U] | no binding |
| GGGTGGGTGGGTGTGT (structured_DNA) [AID-1-G14T] | no binding |
| GGTTGGTGTGGTTGG (structured_DNA) [TBA] | no binding |
| GGTTGGGTGGGTGGGT (structured_DNA) [AID-1-G3T] | no binding |
| GGGGTGGGGTGGGGTGGGGT (structured_DNA) [d(GGGGT)4] | no binding |

Each binder was assayed against thrombin (UniProt P00734;P00734 328-363;364-622) (assay: filter binding).

| Binder | binding result |
| --- | --- |
| GGGTGGGTGGGTGGGT (structured_DNA) [AID-1 (T30923)] | no binding |

These binders were tested against T1, Hyper-IL-6 (sIL-6R/IL-6 fusion) (assay: SPR).

| Binder | Kd |
| --- | --- |
| GGGTGGGTGGGTGGGT (structured_DNA) [AID-1 (T30923)] | 490 nM |
